Measurements reported in patent US20210147536A1 (MAB VENTURE BIOPHARM, published 2021).
Positions count from the first letter of the chain named.

T1: human LAG-3 on the cell surface (human, UniProt P18627 23-525)
T1 construct: whole, on cells; also called cells expressing the human LAG-3
T1 sequence (looked up): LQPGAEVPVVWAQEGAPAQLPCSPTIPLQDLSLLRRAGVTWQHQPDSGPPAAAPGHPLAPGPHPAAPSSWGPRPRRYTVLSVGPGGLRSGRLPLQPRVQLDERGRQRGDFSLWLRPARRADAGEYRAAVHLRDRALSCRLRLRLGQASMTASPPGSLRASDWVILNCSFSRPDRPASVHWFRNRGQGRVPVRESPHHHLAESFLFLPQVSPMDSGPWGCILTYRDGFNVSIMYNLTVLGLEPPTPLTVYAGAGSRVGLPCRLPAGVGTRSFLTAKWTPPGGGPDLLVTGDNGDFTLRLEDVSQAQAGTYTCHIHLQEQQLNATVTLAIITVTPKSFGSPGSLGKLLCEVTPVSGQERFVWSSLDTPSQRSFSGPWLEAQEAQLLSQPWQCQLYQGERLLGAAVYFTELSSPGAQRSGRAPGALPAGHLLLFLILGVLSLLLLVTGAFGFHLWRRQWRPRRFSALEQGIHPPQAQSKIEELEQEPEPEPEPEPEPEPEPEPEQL

T2: human LAG-3-6*His tag recombinant fusion protein (human, UniProt P18627 23-450, biotin-labelled in panning and in Example 9)
T2 construct: Bought protein; also called hLAG-3-6*his tag recombinant protein; human LAG-3-his tag recombinant fusion protein
T2 sequence: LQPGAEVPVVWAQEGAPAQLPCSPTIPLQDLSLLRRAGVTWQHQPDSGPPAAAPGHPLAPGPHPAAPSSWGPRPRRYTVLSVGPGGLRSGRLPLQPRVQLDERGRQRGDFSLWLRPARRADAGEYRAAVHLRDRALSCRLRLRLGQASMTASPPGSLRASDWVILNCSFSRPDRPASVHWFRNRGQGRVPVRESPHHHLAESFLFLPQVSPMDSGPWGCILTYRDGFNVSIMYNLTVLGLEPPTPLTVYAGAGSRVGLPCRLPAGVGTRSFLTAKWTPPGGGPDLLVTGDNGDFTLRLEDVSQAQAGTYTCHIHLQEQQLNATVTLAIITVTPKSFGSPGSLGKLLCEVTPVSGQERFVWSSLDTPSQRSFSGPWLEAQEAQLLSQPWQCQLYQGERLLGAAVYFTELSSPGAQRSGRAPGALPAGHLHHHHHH

B1: scFv single chain antibody 11506 (scFv)
scFv: QLQLQESGPGLVKSSQTLSLTCSVSGDSISSGKYYWTWIRQPAGKGLEWLGRIHSSGFAQYNPSLKGRLTISVDTRKNEFSLKMTSVTAADTAVYYCARGGWNDPFDSWGQGTLVTVSSGGGGSGGGGSGGGGSGGGGASDIQMTQSPDSLAVSLGERATINCKSSQSVLYSSNNKNYLAWYQQKPGQPPKLLIYWASTRESGVPDRFSVSGSGTDFTLTISSLHAEDVAVYYCQQYYSTPITFGPGTKLEIK
notes: From phagemid pCLS1.0, which adds a C-terminal Myc-His tag
B2: scFv single chain antibody 11465 (scFv)
scFv: QVQLVQSGAEVKKPGSSVKVSCKTSGGTFSNYAINWVRQAPGQGLEWMGVIIPMFGPANYVQKFQGRVTITADETTSTAYMELSSLRSEDTAIYYCARDLAPAGFYGMDVWGQGTTVTVSSGGGGSGGGGSGGGGSGGGGASDIVLTQSPSSVSASVGDRVTITCRASQGISNWLAWYQQKPGKAPKLLIYAASSLQSGVPSRFSGSRSGTDFTLTISSLQPEDFATYYCQQARNFPFTFGQGTRLEIK
notes: as for B1
B3: scFv single chain antibody 11458 (scFv)
scFv: RVRLQESGPGLVKPSETLSLTCTVSGGSISSSSYYWGWIRQPPGKGLEWIGSIYYSGSTYYNPSLKSRVTISVDTSKNQFSLKLSSVTAADTAVYYCAREYSGYDGAYVGYWGQGTLVTVSSGGGGSGGGGSGGGGSGGGGASQSVLTQPPSVSGAPGQRVTISCTGSNSNIRAGYDVHWYQQLPGTVPKLLIYGNSNRPSGVPDRFSGSKSGTSASLAISGLQSEDEGNYFCATWDDSLWGWVFGAGTELTVL
notes: as for B1
B4: scFv single chain antibody 11446 (scFv)
scFv: EVQLVESGGGVVQPGRSLRLSCAASGFTFSNYAMHWVRQAPGKGLEWVAVISYDGSDKYYADSVKGRFTISRDNSKNTLYLQMKSLRAEDTAVYYCARSIGFLESDAFDIWGQGTTVTVSSGGGGSGGGGSGGGGSGGGGASDIVLTQSPSSLSASVGDRVTITCQASHGISNFLNWYQQKPGKAPKLLIYDASTLETGVPSRFSGSGSGTDFRFTISSLQPEDIATYYCQQFDNLPITFGQGTRLEIK
notes: as for B1
B5: scFv single chain antibody 11454 (scFv)
scFv: EVQLLQSGGGLVQPGGSLRLSCAASGFTFSSYEMNWVRQAPGKGLEWVSYISSSGSTIYYADSVKGRFTISRDNAKNSLYLQMNSLRAEDTAVYYCARVGLLDAFDIWGQGTMVTVSSGGGGSGGGGSGGGGSGGGGASQSVLTQPPSVSAAPGQKVTISCSGSSSNIGNNYVSWYQLIPEKAPRLLIYDDDKRPSGIPDRFSGSQSGTSATLGITGLQTGDEADYFCGTWDNSLSGAVFGGGTQLIIL
notes: as for B1
B6: scFv single chain antibody 11451 (scFv)
scFv: QVQLQESGPGLVKPSETLSLTCTVSGGSISSGGYYWGWIRQPPGKGLEWIGSIYYSGRTYYNPSLKSRVTISVDTSRNQFSLKLSSLTAADTAVYYCARTGGGAYGFDYWGQGTLVTVSSGGGGSGGGGSGGGGSGGGGASQPVLTQPHSVSESPGKTVTISCTRSSGNIASNYVQWYQKRPGSPPTTVIYEDNQRPSGVPDRFSASIDSSSNSASLTISGLRTEDEADYYCQSYDTILGYVFGGGTQLTAL
notes: as for B1
B7: scFv single chain antibody 11507 (scFv)
scFv: QVQLQESGPGLVKPSETLSLTCTVSGYSISSGYYWGWIRQPPGKGLEWIGSIYHSGSTYYNPSLKSRVTISVDTSKNQFSLKLSSVTAADTAVYYCARDLQDWFDPWGQGTLVTVSSGGGGSGGGGSGGGGSGGGGASLAVLTHAPSASGTPGQRVTISCSGSKSNIGSNSVNWYQHLPGTAPKLLIHTNDQRPSGVPDRFAGSKSGTSASLTISGLRPEDEADYYCATWDDSMSGPVFGGGTELTVL
notes: as for B1
B8: scFv single chain antibody 11449 (scFv)
scFv: QVQLVQSGAEVKKPGASVKVSCKASGYTFTSYGISWVRQAPGQGLEWMGWISAYNGNTNYAQKLQGRVTMTTDTSTSTAYMELRSLRSDDTAVYYCARDEGANWGDAFDIWGQGTMVTVSSGGGGSGGGGSGGGGSGGGGASQLVLTQSPSASGTPGQRVTISCSGSSSNIGNNAVNWYQQLPGTAPKILIYSNNQRPSGVPDRFSGSKSGASASLAISGLQSEDESDYYCAAWDDSLNAVVFSGGTELTVL
notes: as for B1
B9: scFv single chain antibody 11455 (scFv)
scFv: EVHLVESGGGVVQPGRSLRLSCAASGFTFSNYAMHWVRQAPGKGLEWVAVISYDGNNQYYADSVKGRFTISRDNSKNTLYLQMNSLRAEDTAVFYCARSIGFLESDAFDIWGQGTTVTVSSGGGGSGGGGSGGGGSGGGGASEIVLMQSPGTLSLSPGERATLSCRASQSFSDGSLAWYQQKPGQPPRLVIYDASKRATGIPDRFSGSRSGTEFTLTISSLQSEDFAVYSCQQYYNWPPTFGQGTRLEIK
notes: as for B1
B10: scFv single chain antibody 11452 (scFv)
scFv: EVQLLESGAEVKKPGASVKVSCKASGYTFTSYGISWVRQAPGQGLEWMGWISAYNGNTNYAQKLQGRVTMTTDTSTSTAYMELRSLRSDDTAVYYCARDGWWELLRPDDAFDIWGQGTTVTVSSGGGGSGGGGSGGGGSGGGGASQLVLTQSPSVSVSPGQTASITCSGDKLGDKYAYWYQQKPGQAPVLVIYYDSDRPSGIPERFSGSNSGNTATLTISRVEAGDEADYYCQVWDSSSDQVVFGGGTQLTVL
notes: as for B1
B11: scFv single chain antibody 11487 (scFv)
scFv: QVQLVESGGGLVQPGRSLRLSCVASGFTFDDHAMHWVRQTPEKGLEWVSGISWNGGDIRYADSVKGRFIISRDNAKNSLHLQMNSLRGEDTAVYYCARDGGYSVLRAFDIWGQGTTVTVSSGGGGSGGGGSGGGGSGGGGASQSVLTQPPSVSGAPGQRVTISCTGSSSNIGAGYDVHWYQQLPGTAPKLLIYGNSNRPSGVPDRFSGSKSGTSASLAITGLQAEDEADYYCQSYDSSLSGWVFGGGTQLIIL
notes: as for B1
B12: IgG4 monoclonal antibody 11454 (antibody, V domains shown)
VH: EVQLLQSGGGLVQPGGSLRLSCAASGFTFSSYEMNWVRQAPGKGLEWVSYISSSGSTIYYADSVKGRFTISRDNAKNSLYLQMNSLRAEDTAVYYCARVGLLDAFDIWGQGTMVTVSS
VL: QSVLTQPPSVSAAPGQKVTISCSGSSSNIGNNYVSWYQLIPEKAPRLLIYDDDKRPSGIPDRFSGSQSGTSATLGITGLQTGDEADYFCGTWDNSLSGAVFGGGTQLIILG
notes: IgG4, lambda
B13: IgG4 monoclonal antibody 11471 (antibody, V domains shown)
VH: RVRLQESGPGLVKPSQTLSLTCTVSGGSISSSNWWSWVRQPPGKGLEWIGEIYHSGSTNYNPSLKSRVTISVDKSKNQFSLKLSSVTAADTAVYYCARDRAIRDAFDIWGQGTTVTVSS
VL: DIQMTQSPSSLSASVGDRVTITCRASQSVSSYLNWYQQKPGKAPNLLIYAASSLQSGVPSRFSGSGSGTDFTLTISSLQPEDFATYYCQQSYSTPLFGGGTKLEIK
notes: IgG4, kappa
B14: IgG4 monoclonal antibody 11487 (antibody, V domains shown)
VH: QVQLVESGGGLVQPGRSLRLSCVASGFTFDDHAMHWVRQTPEKGLEWVSGISWNGGDIRYADSVKGRFIISRDNAKNSLHLQMNSLRGEDTAVYYCARDGGYSVLRAFDIWGQGTTVTVSS
VL: QSVLTQPPSVSGAPGQRVTISCTGSSSNIGAGYDVHWYQQLPGTAPKLLIYGNSNRPSGVPDRFSGSKSGTSASLAITGLQAEDEADYYCQSYDSSLSGWVFGGGTQLIILG
notes: IgG4, lambda
B15: IgG4 monoclonal antibody 11446 (antibody, V domains shown)
VH: EVQLVESGGGVVQPGRSLRLSCAASGFTFSNYAMHWVRQAPGKGLEWVAVISYDGSDKYYADSVKGRFTISRDNSKNTLYLQMKSLRAEDTAVYYCARSIGFLESDAFDIWGQGTTVTVSS
VL: DIVLTQSPSSLSASVGDRVTITCQASHGISNFLNWYQQKPGKAPKLLIYDASTLETGVPSRFSGSGSGTDFRFTISSLQPEDIATYYCQQFDNLPITFGQGTRLEIK
notes: IgG4, kappa
B16: IgG4 monoclonal antibody 11455 (antibody, V domains shown)
VH: B15 VH with Q3H, S56N, D57N, K58Q, K84N, Y94F
VL: EIVLMQSPGTLSLSPGERATLSCRASQSFSDGSLAWYQQKPGQPPRLVIYDASKRATGIPDRFSGSRSGTEFTLTISSLQSEDFAVYSCQQYYNWPPTFGQGTRLEIK
notes: IgG4, kappa

The binders below were run against T1, human LAG-3 on the cell surface (assay: flow cytometry, soluble scFv supernatant on activated human CD4+ T cells, anti-His-PE).

Binder | binding result
B1 | binds
B2 | binds
B3 | binds
B4 | binds
B5 | binds
B6 | binds
B7 | binds
B8 | binds
B9 | binds
B10 | binds
B11 | binds

These binders were tested against T2, human LAG-3-6*His tag recombinant … (assay: ELISA, human LAG-3-6*His coated at 1 µg/ml, IgG4 titrated, anti-hIgG HRP).

Binder | EC50 [µg/mL]
B12 | 85.8
B13 | 22.3
B14 | 3.35
B15 | 85.6
B16 | 83.1
